The record followed here is patent US20260049134A1 (UNIVERSITY OF FLORIDA RESEARCH FOUNDATION, published 2026).

Test [1] concerns the target T1, GARS-His (Sino Biological) (human, UniProt P41250 37-739, limits assumed).
T1 construct: Bought; also called GARS1; glycyl-tRNA synthetase; not shown: His tag of the bought protein
T1 sequence: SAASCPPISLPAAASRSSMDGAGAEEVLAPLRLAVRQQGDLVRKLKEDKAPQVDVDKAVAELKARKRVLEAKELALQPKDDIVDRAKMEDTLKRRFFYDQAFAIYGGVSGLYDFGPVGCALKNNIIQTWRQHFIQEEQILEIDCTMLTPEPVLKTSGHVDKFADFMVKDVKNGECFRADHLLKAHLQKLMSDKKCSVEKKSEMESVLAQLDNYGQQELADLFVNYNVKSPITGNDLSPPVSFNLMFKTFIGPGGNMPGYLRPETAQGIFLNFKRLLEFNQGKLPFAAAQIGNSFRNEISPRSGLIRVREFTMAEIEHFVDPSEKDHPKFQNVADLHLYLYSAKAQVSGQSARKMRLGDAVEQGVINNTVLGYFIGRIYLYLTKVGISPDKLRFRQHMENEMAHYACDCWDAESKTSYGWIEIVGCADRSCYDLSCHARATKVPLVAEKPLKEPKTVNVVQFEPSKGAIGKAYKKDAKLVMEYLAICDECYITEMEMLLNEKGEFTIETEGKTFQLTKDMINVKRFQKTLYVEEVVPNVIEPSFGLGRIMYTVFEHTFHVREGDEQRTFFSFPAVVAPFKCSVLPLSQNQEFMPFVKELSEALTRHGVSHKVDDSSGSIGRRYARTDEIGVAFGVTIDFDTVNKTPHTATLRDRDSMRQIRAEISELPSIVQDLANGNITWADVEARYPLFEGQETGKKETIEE
Description: ELISA on coated GARS-His. As to the method:
(§1) Recombinant purified ECDs (50-150 ng) of each putative target protein were coated, incubated with 150 ng of the indicated primary antibody, and binding was detected using a peroxidase-conjugated anti-human Fab secondary antibody. Heatmap represents averages of technical triplicates. (8B) Target validation via siRNA knockdown. H929 cells were transfected with siRNA pools targeting the putative antibody targets ICAM1, CADM1, and PTPRG. Cells were then subjected to cognate IgG binding analysis via flow cytometry. (NT, non-targeting siRNA).
(§2) ELISA ELISA was conducted as described previously. Briefly, 50-150 ng of antigen was coated overnight in half-area 96-well plates at 4° C., blocked with 3% BSA at 37° C. for 1 h, and 150 ng of chimeric rabbit/human IgG1 was added, incubating for 2 h at 37° C. […] After incubating at 37° C. for 15 min-1 h (depending on intensity of controls), data were acquired using a SpectraMax M5 plate reader (Molecular Devices).

Test [2] deals with T2, PTPRG, endogenous in H929 multiple myeloma cells (human, UniProt P23470 20-1445).
T2 construct: Native protein on H929 cells (flow cytometry, siRNA knockdown) and in H929 lysates (IP/MS); also called phosphatase receptor type γ
The test can be described thus: flow cytometry, H929 + ICAM1 siRNA; None 455.

Test [3] deals with T3, PTPRG-Fc (ECD of human PTPRG, aa 20-736, fused to human Fc gamma 1) (human, UniProt P23470 20-736).
T3 construct: Made in-house in Expi293 cells; Used in ELISA and SPR; also called recombinant PTPRG-Fc; PTRPG; not shown: human IgG1 Fc (Fc gamma 1) after the hinge
T3 sequence: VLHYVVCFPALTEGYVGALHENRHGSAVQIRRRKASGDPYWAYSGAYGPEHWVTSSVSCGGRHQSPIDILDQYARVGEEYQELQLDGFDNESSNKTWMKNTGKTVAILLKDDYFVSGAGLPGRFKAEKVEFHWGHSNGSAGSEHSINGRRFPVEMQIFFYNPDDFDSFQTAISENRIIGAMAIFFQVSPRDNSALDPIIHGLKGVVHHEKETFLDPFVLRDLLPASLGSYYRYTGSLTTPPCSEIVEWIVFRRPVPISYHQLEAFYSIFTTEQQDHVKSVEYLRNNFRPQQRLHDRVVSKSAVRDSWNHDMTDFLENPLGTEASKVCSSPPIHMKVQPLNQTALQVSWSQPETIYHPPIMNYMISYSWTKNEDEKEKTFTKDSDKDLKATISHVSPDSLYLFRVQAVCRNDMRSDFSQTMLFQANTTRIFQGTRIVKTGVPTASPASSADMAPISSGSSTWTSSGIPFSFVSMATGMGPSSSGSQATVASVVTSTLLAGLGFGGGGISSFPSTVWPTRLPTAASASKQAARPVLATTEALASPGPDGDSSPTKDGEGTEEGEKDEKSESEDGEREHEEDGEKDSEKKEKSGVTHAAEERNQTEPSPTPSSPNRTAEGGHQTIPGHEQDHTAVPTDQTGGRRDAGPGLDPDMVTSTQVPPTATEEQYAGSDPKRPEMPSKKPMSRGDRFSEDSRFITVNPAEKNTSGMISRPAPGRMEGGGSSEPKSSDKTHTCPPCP
The test can be described thus: ELISA on coated PTPRG-Fc. As to the method:
as §1, §2
On the technique in general: An ELISA detects its analyte on a solid surface through an enzyme-linked reagent.

T2 sequence (P23470 20-1445 limits assumed): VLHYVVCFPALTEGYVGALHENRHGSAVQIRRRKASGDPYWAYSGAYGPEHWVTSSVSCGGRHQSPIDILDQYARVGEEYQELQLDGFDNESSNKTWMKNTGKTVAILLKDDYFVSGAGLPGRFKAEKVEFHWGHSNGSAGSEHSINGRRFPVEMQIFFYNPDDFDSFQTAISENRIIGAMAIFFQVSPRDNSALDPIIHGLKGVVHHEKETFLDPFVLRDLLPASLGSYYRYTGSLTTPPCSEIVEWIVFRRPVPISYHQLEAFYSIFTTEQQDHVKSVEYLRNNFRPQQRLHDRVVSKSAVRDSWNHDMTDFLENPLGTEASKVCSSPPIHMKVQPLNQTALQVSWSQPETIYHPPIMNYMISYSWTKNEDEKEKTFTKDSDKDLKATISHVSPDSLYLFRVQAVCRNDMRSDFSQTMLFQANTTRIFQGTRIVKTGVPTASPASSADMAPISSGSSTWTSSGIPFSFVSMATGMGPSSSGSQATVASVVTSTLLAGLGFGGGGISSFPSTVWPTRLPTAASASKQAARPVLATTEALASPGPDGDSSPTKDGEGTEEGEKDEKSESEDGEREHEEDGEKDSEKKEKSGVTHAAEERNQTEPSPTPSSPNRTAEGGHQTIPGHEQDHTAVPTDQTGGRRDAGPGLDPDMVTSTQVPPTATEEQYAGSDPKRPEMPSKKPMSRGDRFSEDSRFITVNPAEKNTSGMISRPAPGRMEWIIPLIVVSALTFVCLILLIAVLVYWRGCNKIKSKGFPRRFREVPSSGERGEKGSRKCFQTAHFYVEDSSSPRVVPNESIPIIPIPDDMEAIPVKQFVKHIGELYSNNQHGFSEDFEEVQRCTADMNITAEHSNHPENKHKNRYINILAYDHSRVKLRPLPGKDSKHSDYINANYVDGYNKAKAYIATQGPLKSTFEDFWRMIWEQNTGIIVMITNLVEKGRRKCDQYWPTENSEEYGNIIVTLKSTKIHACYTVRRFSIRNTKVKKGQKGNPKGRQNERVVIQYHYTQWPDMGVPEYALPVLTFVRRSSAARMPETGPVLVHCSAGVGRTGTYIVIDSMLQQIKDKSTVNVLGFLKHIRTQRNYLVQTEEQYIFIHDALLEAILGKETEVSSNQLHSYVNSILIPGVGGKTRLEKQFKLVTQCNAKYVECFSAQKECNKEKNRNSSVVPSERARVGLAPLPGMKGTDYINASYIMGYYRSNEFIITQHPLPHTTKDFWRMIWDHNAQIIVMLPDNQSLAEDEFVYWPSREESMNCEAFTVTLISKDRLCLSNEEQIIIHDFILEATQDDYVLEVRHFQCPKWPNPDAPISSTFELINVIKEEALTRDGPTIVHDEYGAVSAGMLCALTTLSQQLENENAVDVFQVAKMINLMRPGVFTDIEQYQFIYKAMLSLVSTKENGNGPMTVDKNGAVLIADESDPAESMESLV

B1: HW-25 chimeric rabbit-human IgG1 LA/LA/PG (antibody, V domains shown)
VH: QSLEESGGRLVTPGTPLTLTCTVSGFSLSSYAMGWVRQAPGKGLEWIGIIDSRGSTYYATWAKGRFTISKTSTTVDLKITSPTTEDTATYFCAREDSYYYDSFNLWGPGTLVTVSS
VL: SFVLTQPASVQVNLGQTVSLTCTADTLSRRYASWYQQKPGQAPVLLIYRDTSRPSGVPDRFSGSSSGNTATLTISGAQAGDEADYYCATSDGSGSSYQCVFGGGTQLTVTG
notes: Fc-silenced (L234A/L235A/P329G) IgG1, lambda; Alexa Fluor 647-labeled in single-step flow cytometry; Cluster C-1
Consider B1, for which, in test [1], the binding result was “no binding (tested: 150 ng IgG1 per well)”. The “mAb binding (MFI)” value in test [2] was determined as 11400.

B2: TH9-0022 (antibody, human IgG1, kappa, L234A L235A, V domains shown)
VH: QSLEESGGRLVTPGTPLTLTCTVSGFSLSSYAMNWVRQAPGKGLEWIGIINSYGSTYYASWAKGRFTISKTSTTVDLKITSPTTEDTATYFCARVTYDSYGYGYAPYGMDLWGPGTLVTVSS
VL: LVMTQTPSSTSNAVGGTVTIKCQASQSIGNVLAWYQQKPGQPPKLLIYAASTLASGVPSRVGGSRSGTEYTLTISGVQREDAATYYCLGSDSDSDIAFGGGTELEILR
notes: also called TH9-022; negative control
On to B2, for which the binding result in test [3] and in test [1] was “no binding (tested: 150 ng IgG1 per well)” each time.
